In assay [1] the target is AD-CaM (Calmodulin, encoded by the CALM2 gene, fused to the activation domain) (human) (UniProt P0DP24). As to the kind of experiment: cell-based or functional assay.
For assay [2] the target is unchanged. As to the kind of experiment: yeast two-hybrid, CPRG β-gal assay, against DB-Q2C wt.

Chain of DB-KCNQ2 wild-type (wt) C-term BAIT (O43526 other isoform, or with tags, fused parts or gaps limits assumed): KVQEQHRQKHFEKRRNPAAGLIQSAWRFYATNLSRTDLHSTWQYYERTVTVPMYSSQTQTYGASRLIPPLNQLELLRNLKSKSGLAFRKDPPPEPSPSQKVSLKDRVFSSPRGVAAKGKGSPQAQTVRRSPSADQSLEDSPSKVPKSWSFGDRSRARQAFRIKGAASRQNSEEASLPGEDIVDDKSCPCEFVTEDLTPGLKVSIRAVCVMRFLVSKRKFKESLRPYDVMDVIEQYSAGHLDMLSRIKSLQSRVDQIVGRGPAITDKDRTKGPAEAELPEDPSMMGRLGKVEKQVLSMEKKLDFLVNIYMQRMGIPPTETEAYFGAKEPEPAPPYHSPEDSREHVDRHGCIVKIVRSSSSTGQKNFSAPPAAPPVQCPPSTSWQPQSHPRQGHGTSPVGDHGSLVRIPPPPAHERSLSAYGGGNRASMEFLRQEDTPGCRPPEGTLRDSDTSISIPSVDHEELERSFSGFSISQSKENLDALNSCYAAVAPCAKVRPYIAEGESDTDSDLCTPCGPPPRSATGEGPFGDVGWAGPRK

“DB-KCNQ2 wild-type (wt) C-term BAIT (from UniProt O43526 319-872)” gave a units of β-gal activity (CPRG assay, liquid culture) (units β-gal activity) in assay [1] of 0.05.

For the substance “DB-Q2C L619R mutant (from UniProt O43526 319-872)”, the fold increase in CaM binding affinity against wt in assay [2] was found to be 5 fold. The units of β-gal activity (CPRG assay, liquid culture) (units β-gal activity) in assay [1] stood at 0.26.

Source of the values: patent publication US20090081724A1.
